From patent US20250137032A1, “TWO-COMPONENT SYSTEMS FOR USE IN CELL-FREE GENE EXPRESSION” (priority 2023, published 2025)
“Also recorded” adds a separate entry of the source.

Target: T1, NarX (Escherichia coli, UniProt P0AFA2, T450I/V366A)
T1 construct: All genes were; made in house; host or cells: cell-free expression in situ, myTXTL E. coli extract (Arbor Biosciences), with synthetic lipid vesicles
Experiment: Cell-free NarX-L system encapsulated in giant unilamellar vesicles
Assay type: biochemical, E. coli
Conditions: GUV-encapsulated NarX-L, nitrate dependent signaling (FIG. 16)
Description: Over the last decade, many promising cell-free systems have been developed, enabling the delivery and sensing of a wide array of ligands in non-ideal environments. Cell-free systems have been encapsulated and administered to mice (47), lyophilized and used in resource limited settings (6, 7), and integrated into wearable materials to sense environmental contaminants (8). Towards the goal of creating cell-mimetic particles which can sense environmental stimuli in complex environments, such as the body, we encapsulated our cell-free system into giant unilamellar vesicles using the emulsion transfer method (FIG. 5A). We encapsulated cell-free extract containing plasmids encoding NarX, NarL, and the downstream protein (luciferase or mEGFP) into membranes composed of 1 POPC: 1 cholesterol and a rhodamine conjugated lipid. We hypothesized that by encapsulating cell-free reaction components into vesicles, NarX could insert into membranes and initiate signaling in response to exogenously added nitrate. […]
For samples containing the luciferase plasmid, 0.5 μL of NanoGlo Luciferase substrate was added to the reaction, and reactions were read on a Molecular Devices Spectra Max i3 plate reader. […] Images were analyzed using the Nikon NIS software.

T1 sequence (P0AFA2 other isoform, or with tags, fused parts or gaps V366A/T450I): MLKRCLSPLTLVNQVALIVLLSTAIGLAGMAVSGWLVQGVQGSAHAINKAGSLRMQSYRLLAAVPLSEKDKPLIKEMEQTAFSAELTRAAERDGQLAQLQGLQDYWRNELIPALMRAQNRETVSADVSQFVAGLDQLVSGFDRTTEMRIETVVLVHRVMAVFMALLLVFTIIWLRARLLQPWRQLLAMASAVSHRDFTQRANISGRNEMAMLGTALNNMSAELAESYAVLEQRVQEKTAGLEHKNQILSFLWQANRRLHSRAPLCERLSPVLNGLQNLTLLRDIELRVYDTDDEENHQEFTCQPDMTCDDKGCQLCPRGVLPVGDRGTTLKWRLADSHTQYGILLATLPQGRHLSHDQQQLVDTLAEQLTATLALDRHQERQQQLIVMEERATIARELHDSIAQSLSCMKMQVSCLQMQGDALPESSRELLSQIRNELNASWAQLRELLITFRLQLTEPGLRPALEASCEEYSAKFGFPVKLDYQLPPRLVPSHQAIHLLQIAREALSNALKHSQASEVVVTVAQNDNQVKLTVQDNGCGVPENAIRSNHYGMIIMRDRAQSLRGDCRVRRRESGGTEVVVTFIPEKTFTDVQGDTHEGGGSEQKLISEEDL

B1: Proteinase K: protease added to the outside of vesicles (protein, UniProt P06873 106-384, looked up)
Proteinase K: AAQTNAPWGLARISSTSPGTSTYYYDESAGQGSCVYVIDTGIEASHPEFEGRAQMVKTYYYSSRDGNGHGTHCAGTVGSRTYGVAKKTQLFGVKVLDDNGSGQYSTIIAGMDFVASDKNNRNCPKGVVASLSLGGGYSSSVNSAAARLQSSGVMVAVAAGNNNADARNYSPASEPSVCTVGASDRYDRRSSFSNYGSVLDIFGPGTSILSTWIGGSTRSISGTSMATPHVAGLAAYLMTLGKTTAASACRYIADTANKGDLSNIPFGTVNLLAYNNYQA
effect on encapsulated TCS signaling when added outside of vesicles: signaling was inhibited; also recorded: is inhibited
